# According to the DeepSol protein solubility set:
# Experiment: soluble on expression in E. coli; label from the status in PepcDB or PDB records
row,Sequence,soluble on expression in E. coli
1,MPFPSRSLRATLCSAPVRMPDAAQKNAATPPPPLALSKPSPSPWAALLTPSSLSFPCSPSLPTYRRTRTAMHGSPPARGLQRRIKVPLMASAPSSIAFDIAAPTAAAWIARWMPVASPRRCSPLLRLCGDYPRCAVAAALSCQRLWIRSTSPLACSTAAGQTRSTPKMTKRPRRGIRRPSRAAGRLGSDTEEAENAALCQRHPEEHAGIFQSQHIKPFPVRAAIDIGTGGVVSLCVARVDATVGAIQKLMYQTQLPLHLEALPTSMSSPSSPLSASSSSFTLSERTMEDITNKVHILQGAMRRNAFEGLSERAAVLSWPLCLARNAGQLAERLTKEFKVDVRVLGADFDVEWPPSVARFLAGEGASTPETADDSRSTVDKGTRDSVTRKGAENTLKSLLCAARAPTTSGLARHKRKVTAPPSSGSASSRGAMDARTQLDTLAFLAHAAVSQCVAPQRLLVLHEDPQRGLRLLGLGTSAADDIADLLDDATTPEERQSLYAIAHGPGPSLLEAGERTPSSGKQVFVAAHAQSRQQASLLPTLSSMRDCQGSADDGTSSDAAPAAASLMRLVEHPLPVDVASAHRYCITQIQRRPLESYGLHASSPNPLLADEFAALRGLLVGMIQPTLPAWVRRKAQLGGVLCGTSHNGGLLNLAARVSQQTHVSLEHLEVHAQYHFCGLTDVLLAESFPNPFLVLPSVALTAAVLRSLESPRITYLPEVSVAAALLVQPSLWLHARATEVRARLARDPFYASTTAAQRGRMFGRPHRKDNPTAAPDATWVKEGRWNPISFSESMRGT,not soluble
2,MSLRMIGKVLELLNCKETEREINRRKFSICDDVNFILNLPIGYLKDVISPLENYLSKHMTNNFSRLTRVVPNDYEDTQLHFSKFFLNLYSSAISEIPRFNILTSLVILDEYRMMPDKALIAAADELARNGINAIFSTSTPSVFFEEEIVSRFRNRRVVSISIVNEYGQAVEGRDCVKKGEGYYQCRGSYEVIELIEDFDIRDLDYEIIKGEEVFKVKEPFTLFVNSWEKALRLYRKLREERNTEVCLLNSSDECKVTITPKIMPTRFNVVSEISSLPTIVARSGIINDKDKIYVWIDRDNYDTVTESTLNLLSNIKVCLKHPFGCNGKMGYANKTVLKPNIDERLIKRLSEISHLMDRREFEKVTEVFSDFVTVDLFTDKEKITTVPPEFVYENKKKILYYGNSCVYTYFTDGEKCSKIVYNWLEGGGVSWLKRNLARAYKNYVEEEGKKKVFLGLKARDVEEWIEGHHHHHH,not soluble
3,MEHWYCTNMVGVPVGLIGSTAFNRCLRRITIHGTRETHPGLFRLLAACEYPATASEVFEHYMELEFGLAPGAHEPTQARYPTSYLDLLRGWGVESDCPKAAVLKGWVESRFGLVPTFHKQRLGLFPSSAWATYLQEKTDVRFHNNCIFQQFDLLYEYCQWSIRRFKTPGPRFVRLWRGTNDVEQQLVEGDARQRLCTVRLNNLVSFSDSKERAEEFGDWVLETEVPTVKLLFFPGLLQRQVLGYEGEFLVIGGNYKVRAYHGWFLEHHHHHH,soluble
4,GPHMVIRAEKMEAVTHLAASISHEIRNPLTAARGFIQLIEEQPLAADKRRQYARIAIEELDRAEAIITDYLTFAKPAPETPEKLNVKLEIERVIDILRPLANMSCVDIQATLAPFSVIGEREKFRQCLLNVMKNAIEAMPNGGTLQVYVSIDNGRVLIRIADTGVGMTKEQLERLGEPYFTTKGVKGTGLGMMVVYRIIESMNGTIRIESEIHKGTTVSIYLPLASSPSSSTISDKEKQLFAAL,soluble
5,MGSSHHHHHHGGTGENLYFQGGSGATAQNANPECVGPESPQAGIAPSCQGCPNAAICASAPKGPDPDIPLIRERLAGVKHKVMVVSGKGGVGKSTMTKELAFALGARGLSVGLMDMDICGPSLPRLTGVRGEDAHQSAGGIEPVLVDENVTMMSMHYLLSDKNEAVLFRGPRKNGVIKMFLKDVIWGNLDVLLIDTPPGTSDEHITVNSLLQQTTNGVDGAVLITTPQRVAEADVRREVNFCQKAKLPILGLVENMSGFVCPGCHKESQIFPKEEGGEGRKEGAGVRLSREFDVPLWGEVPLDPQLMKACEEGISFSEYVEKSGMTSSTTLDALFTVADQLIASLGIQVE,not soluble
6,MAHHHHHHMQPFQFVPQVDNKVNVVSMQPFQMYVPNHNMMVPQACPENIQQYHHQPIFFEPLPPIYVKNQLLPSPILVQMPTTVVVQNESQPAMVLSQPPSNIVVKNNPPTSVFVKQSNPNVVVKNEAPPNYVQSVEACQEGVVADMSRPMMTTLNKNIL,not soluble
7,MSLKDINIGVVLPLTGTVAAYGQDVFNGIELANKLQPKLSNGDVIKLITIDTKGDKLETSNGVNRLIATDKVLGIIGEATTPNTIQAISIAEEKKIPLIAPVASGDKLLDKKKYASRVCFKDSFQGDKFATYVSKDLGLKNAVIIIDQSNVYSLGLARAFENSFKNNGGKIIKKLVINSGDKDFRAVVSQLKSLNPDFVYMPIYHPEAALIARQARQIGFDKLLVAGDGVNNQTFIDLGGSAVNGVIFTDSFDYNSPSTQLGKDFVAAYEKVKGTKELPAFSAMGADAYFVMLNAMNACVDNLSSECINSKIHQTKDFQAVGGVISIDESGNAIRSVVIKEIQNQKQNYKTIINEGHHHHHH,soluble
8,YRQQFDFSCGSAALASLLTFHYDDSVDEQSVFVDMFQHGDQEKIRREGFSMLDMKRYLERRGYGSDGFKINLDQLYSTGSPAITIINHNGYMHFVIIKGVDEDRVLVGDPAQGVKSMDRTEFERMWGNRIVFLIHNHVD,not soluble
9,MGQNIELHESLIRLIPYGEVPLPTVEQVQEHIYSYLNYLSESAIEQDVLFRVLLSTEERETLARAALGLTLEEISDFLRLTVKERLSSNGITIDATVTPMVVEYKTRLLSQMGIELGKPALYSFGGLDLLREWLNRRRKLFTQEARNLQLPQPKGILLEHHHHHH,not soluble
10,MPSMSPIDKSWSTCPYGFLDGTHQELRRIFHLWRCKKYRSQFTEEKKATYEEKLAASELFKDKKALYPSSVSQPFKGDYVEITKNPKYQKLNSLVEDKVLLADVVSKINRANGKGTPRIFLLTKKCLVLADQKTGQVKASVPLPDLSSVFVSTQNDGFFALKLREGATSAAKGDYLLSSDRLIEIITKLYCTGAASAERNQIKIDISDEFLVQFKQDKVCVKFIQGTPKNSNSVSCKRKNNRLLEVSVPSP,soluble
11,MFYKFLLFDLDHTLLDFDAAEDVALTQLLKEEGVADIQAYKDYYVPMNKALWKDLELKKISKQELVNTRFSRLFAHFGQEKDGSFLAQRYQFYLAQQGQTLSGAHDLLDSLIERDYNLYAATNGITAIQTGRLAQSGLAPYFNQVFISEQLQTQKPDALFYEKIGQQIAGFSKEKTLMIGDSLTADIQGGNNAGIDTIWYNPHHLENHTQAQPTYEVYSYQDLLDCLDKNILEKITF,not soluble
12,MVDQATLDKLEAGFKKLQEASDCKSLLKKHLTKDVFDSIKNKKTGMGATLLDVIQSGVENLDSGVGIYAPDAESYRTFGPLFDPIIDDYHGGFKLTDKHPPKQWGDINTLVGLDPAGQFIISTRVRCGRSLQGYPFNPCLTAEQYKEMEEKVSSTLSSMEDELKGTYYPLTGMSKATQQQLIDDHFLFKEGDRFLQTANACRYWPTGRGIFHNDAKTFLVWVNEEDHLRIISMQKGGDLKTVYKRLVTAVDNIESKLPFSHDDRFGFLTFCPTNLGTTMRASVHIQLPKLAKDRKVLEDIASKFNLQVRGTRGEHTESEGGVYDISNKRRLGLTEYQAVREMQDGILEMIKMEKAAA,soluble
13,MGSDKIHHHHHHMKRPGFIERHHLWTEIQKEASEKIKTIVKEQDLLLIRTAWSDQHGIVRSKSLLPQAFFSALENGMQISTGTFLLDTGGAIVFNPFVPGGSLDMPLMTGAPNLVAVPDPDTFKIVPWAKRTGFILCDEYFQNGQPMPFSSRGILRQSLIDLHQRGLEHIVGLEVEWYLAKLEDPMLAIANVGSSGKPGEPAKVSAVDHSFQYLLESHNPEIQDLLGLLAENLVEMKLPLRSVENEGGVGQFEFTFDPIPALQAADTMMIFRMATKQICRQQGYIASFMCRPGLQGSSSNGWHLHQSLVDLTTGENAFMSANSQTLTSDLAKHFVGGLLKHANAASVFTTPTINGYKRFRPYSLAPDRAGWGLENRGAMIRLQGGFDDPSTHIENRVGEPAANPYLYMASQLISGLDGVDCKLDPGSPTEEPYTTENPILPKSLSEAISYLSQSELFPQKMGQQFINFIIKMKESEINRFLQSVADQPPEEYLKQVTNWEQREYFELF,not soluble
14,MKIVMKISEVRGEILLAAADADIVGKKFREKNLHIEVYPSFYGEVRVTDEMFISSMNICTIANLVGEYTIGVAIDAGFIEKDNILYIQKVPYAQYAKIFQ,soluble
15,MTYTVGMYLAERLVQIGLKHHFAVAGDYNLVLLDQLLLNKDMKQIYCCNELNCGFSAEGYARSNGAAAAVVTFSVGAISAMNALGGAYAENLPVILISGAPNSNDQGTGHILHHTIGKTDYSYQLEMARQVTCAAESITDAHSAPAKIDHVIRTALRERKPAYLDIACNIASEPCVRPGPVSSLLSEPEIDHTSLKAAVDATVALLEKSASPVMLLGSKLRAANALAATETLADKLQCAVTIMAAAKGFFPEDHAGFRGLYWGEVSNPGVQELVETSDALLCIAPVFNDYSTVGWSAWPKGPNVILAEPDRVTVDGRAYDGFTLRAFLQALAEKAPARPASAQKSSVPTCSLTATSDEAGLTNDEIVRHINALLTSNTTLVAETGDSWFNAMRMTLPRGARVELEMQWGHIGWSVPSAFGNAMGSQDRQHVVMVGDGSFQLTAQEVAQMVRYELPVIIFLINNRGYVIEIAIHDGPYNYIKNWDYAGLMEVFNAGEGHGLGLKATTPKELTEAIARAKANTRGPTLIECQIDRTDCTDMLVQWGRKVASTNARKTTLALEHHHHHH,soluble
16,MSLSSLEGQENSFTINSVDMKSLPDWTVQNGKNLTLQCFADVSTTSHVKPQHQMLFYKDDVLFYNISSMKSTESYFIPEVRIYDSGTYKCTVIVNNKEKTTAEYQLLVEGVPSPRVTLDKKEAIQGGIVRVNCSVPEEKAPIHFTIEKLELNEKMVKLKREKNSRDQNFVILEFPVEEQDRVLSFRCQARIISGIHMQTSESTKSELVTVTESFSTPKFHISPTGMIMEGAQLHIKCTIQVTHLAQEFPEIIIQKDKAIVAHNRHGNKAVYSVMAMVEHSGNYTCKVESSRISKVSSIVVNITELFSKPELESSFTHLDQGERLNLSCSIPGAPPANFTIQKEDTIVSQTQDFTKIASKSDSGTYICTAGIDKVVKKSNTVQIVVCEMLSEGHHHHHH,not soluble
17,SLKCLVLTGISRNVIEELMRRNIRTIELRSAHNVATALKAEPGDCVFLTPARINDLGRGVSGLVAEVRGKEVMSQSLFYQSPSYIEESELTVVRLMLKPKSLGRLVQVKRGAFLETIEGDVVEMSYFDAR,soluble
18,MTKQLPPGQFETEKWPILHEGDVYQFDEATWNFRLFGDVKEEVSLSYQEVMQLPKTVSTIDMHCVTTWSKFDTTFEGIAFREFLRFVELDPDVKYVKIYGYLNGDRFGYSANLPLEALMGDDALFVYRWKDKHHDWQDISPKHGYPLRFIPPATFYLWKGAKWASGIRFMKEDEPGYWEERGYSMTANPFKEERFAEWVPRIRF,not soluble
19,MSLGPTSKAISRNVRSVKRPRRAPRPVVSTQAMNKLSNVTLSAEQEKLRERVLSFMRSNLSQYKSDWKHPAMFVIQGDAGTGKSVILNSLFNEIQKLSQFSPSSEDILHGTHNYLVVNHPEMLKLYIRISDSFKYISKSSLERPTSLINNLQKRKVMADVVIVDEAHLLATSKDAFKRFYGENHLKDLMSLCKVLVLVYDDKQALRMGSYWDEGSNNGATLKDFYNEIPPKSRDWYTLKQQFRVAAPQNVLNWIDQISVAGKIPPIESVLSKGNADCADDKIKNFDFKIWDDCGAMYEAIKEKDRQYGQCRMLSTYDFPYRLDGKDYYVECGDNFKVRWDRYTPREVTPWSERCDTIDEVGSVYTIQGFDLNYAGVILGRSIGYDAANDCIKLRPELYDDRAGFTKKKNIHNAEDVKQKIIMNSINVLLTRGVRGLYVYAYDPELRERLLRPSKEGHHHHHH,soluble
